Measurements from paper PMC9794699.

Tests used:
[1] = target: low-density lipoprotein receptor-related protein 1 (LRP1), endogenous in WI38 lung fibroblasts (human (endogenous in WI38)) (UniProt Q07954)
[2] = target: low-density lipoprotein receptor-related protein 1 (LRP1), endogenous in WI38 lung fibroblasts (human (endogenous in WI38)) (UniProt Q07954); remark: listed apart in the source

UniProt Q07954, sequence (Q07954 20-4544): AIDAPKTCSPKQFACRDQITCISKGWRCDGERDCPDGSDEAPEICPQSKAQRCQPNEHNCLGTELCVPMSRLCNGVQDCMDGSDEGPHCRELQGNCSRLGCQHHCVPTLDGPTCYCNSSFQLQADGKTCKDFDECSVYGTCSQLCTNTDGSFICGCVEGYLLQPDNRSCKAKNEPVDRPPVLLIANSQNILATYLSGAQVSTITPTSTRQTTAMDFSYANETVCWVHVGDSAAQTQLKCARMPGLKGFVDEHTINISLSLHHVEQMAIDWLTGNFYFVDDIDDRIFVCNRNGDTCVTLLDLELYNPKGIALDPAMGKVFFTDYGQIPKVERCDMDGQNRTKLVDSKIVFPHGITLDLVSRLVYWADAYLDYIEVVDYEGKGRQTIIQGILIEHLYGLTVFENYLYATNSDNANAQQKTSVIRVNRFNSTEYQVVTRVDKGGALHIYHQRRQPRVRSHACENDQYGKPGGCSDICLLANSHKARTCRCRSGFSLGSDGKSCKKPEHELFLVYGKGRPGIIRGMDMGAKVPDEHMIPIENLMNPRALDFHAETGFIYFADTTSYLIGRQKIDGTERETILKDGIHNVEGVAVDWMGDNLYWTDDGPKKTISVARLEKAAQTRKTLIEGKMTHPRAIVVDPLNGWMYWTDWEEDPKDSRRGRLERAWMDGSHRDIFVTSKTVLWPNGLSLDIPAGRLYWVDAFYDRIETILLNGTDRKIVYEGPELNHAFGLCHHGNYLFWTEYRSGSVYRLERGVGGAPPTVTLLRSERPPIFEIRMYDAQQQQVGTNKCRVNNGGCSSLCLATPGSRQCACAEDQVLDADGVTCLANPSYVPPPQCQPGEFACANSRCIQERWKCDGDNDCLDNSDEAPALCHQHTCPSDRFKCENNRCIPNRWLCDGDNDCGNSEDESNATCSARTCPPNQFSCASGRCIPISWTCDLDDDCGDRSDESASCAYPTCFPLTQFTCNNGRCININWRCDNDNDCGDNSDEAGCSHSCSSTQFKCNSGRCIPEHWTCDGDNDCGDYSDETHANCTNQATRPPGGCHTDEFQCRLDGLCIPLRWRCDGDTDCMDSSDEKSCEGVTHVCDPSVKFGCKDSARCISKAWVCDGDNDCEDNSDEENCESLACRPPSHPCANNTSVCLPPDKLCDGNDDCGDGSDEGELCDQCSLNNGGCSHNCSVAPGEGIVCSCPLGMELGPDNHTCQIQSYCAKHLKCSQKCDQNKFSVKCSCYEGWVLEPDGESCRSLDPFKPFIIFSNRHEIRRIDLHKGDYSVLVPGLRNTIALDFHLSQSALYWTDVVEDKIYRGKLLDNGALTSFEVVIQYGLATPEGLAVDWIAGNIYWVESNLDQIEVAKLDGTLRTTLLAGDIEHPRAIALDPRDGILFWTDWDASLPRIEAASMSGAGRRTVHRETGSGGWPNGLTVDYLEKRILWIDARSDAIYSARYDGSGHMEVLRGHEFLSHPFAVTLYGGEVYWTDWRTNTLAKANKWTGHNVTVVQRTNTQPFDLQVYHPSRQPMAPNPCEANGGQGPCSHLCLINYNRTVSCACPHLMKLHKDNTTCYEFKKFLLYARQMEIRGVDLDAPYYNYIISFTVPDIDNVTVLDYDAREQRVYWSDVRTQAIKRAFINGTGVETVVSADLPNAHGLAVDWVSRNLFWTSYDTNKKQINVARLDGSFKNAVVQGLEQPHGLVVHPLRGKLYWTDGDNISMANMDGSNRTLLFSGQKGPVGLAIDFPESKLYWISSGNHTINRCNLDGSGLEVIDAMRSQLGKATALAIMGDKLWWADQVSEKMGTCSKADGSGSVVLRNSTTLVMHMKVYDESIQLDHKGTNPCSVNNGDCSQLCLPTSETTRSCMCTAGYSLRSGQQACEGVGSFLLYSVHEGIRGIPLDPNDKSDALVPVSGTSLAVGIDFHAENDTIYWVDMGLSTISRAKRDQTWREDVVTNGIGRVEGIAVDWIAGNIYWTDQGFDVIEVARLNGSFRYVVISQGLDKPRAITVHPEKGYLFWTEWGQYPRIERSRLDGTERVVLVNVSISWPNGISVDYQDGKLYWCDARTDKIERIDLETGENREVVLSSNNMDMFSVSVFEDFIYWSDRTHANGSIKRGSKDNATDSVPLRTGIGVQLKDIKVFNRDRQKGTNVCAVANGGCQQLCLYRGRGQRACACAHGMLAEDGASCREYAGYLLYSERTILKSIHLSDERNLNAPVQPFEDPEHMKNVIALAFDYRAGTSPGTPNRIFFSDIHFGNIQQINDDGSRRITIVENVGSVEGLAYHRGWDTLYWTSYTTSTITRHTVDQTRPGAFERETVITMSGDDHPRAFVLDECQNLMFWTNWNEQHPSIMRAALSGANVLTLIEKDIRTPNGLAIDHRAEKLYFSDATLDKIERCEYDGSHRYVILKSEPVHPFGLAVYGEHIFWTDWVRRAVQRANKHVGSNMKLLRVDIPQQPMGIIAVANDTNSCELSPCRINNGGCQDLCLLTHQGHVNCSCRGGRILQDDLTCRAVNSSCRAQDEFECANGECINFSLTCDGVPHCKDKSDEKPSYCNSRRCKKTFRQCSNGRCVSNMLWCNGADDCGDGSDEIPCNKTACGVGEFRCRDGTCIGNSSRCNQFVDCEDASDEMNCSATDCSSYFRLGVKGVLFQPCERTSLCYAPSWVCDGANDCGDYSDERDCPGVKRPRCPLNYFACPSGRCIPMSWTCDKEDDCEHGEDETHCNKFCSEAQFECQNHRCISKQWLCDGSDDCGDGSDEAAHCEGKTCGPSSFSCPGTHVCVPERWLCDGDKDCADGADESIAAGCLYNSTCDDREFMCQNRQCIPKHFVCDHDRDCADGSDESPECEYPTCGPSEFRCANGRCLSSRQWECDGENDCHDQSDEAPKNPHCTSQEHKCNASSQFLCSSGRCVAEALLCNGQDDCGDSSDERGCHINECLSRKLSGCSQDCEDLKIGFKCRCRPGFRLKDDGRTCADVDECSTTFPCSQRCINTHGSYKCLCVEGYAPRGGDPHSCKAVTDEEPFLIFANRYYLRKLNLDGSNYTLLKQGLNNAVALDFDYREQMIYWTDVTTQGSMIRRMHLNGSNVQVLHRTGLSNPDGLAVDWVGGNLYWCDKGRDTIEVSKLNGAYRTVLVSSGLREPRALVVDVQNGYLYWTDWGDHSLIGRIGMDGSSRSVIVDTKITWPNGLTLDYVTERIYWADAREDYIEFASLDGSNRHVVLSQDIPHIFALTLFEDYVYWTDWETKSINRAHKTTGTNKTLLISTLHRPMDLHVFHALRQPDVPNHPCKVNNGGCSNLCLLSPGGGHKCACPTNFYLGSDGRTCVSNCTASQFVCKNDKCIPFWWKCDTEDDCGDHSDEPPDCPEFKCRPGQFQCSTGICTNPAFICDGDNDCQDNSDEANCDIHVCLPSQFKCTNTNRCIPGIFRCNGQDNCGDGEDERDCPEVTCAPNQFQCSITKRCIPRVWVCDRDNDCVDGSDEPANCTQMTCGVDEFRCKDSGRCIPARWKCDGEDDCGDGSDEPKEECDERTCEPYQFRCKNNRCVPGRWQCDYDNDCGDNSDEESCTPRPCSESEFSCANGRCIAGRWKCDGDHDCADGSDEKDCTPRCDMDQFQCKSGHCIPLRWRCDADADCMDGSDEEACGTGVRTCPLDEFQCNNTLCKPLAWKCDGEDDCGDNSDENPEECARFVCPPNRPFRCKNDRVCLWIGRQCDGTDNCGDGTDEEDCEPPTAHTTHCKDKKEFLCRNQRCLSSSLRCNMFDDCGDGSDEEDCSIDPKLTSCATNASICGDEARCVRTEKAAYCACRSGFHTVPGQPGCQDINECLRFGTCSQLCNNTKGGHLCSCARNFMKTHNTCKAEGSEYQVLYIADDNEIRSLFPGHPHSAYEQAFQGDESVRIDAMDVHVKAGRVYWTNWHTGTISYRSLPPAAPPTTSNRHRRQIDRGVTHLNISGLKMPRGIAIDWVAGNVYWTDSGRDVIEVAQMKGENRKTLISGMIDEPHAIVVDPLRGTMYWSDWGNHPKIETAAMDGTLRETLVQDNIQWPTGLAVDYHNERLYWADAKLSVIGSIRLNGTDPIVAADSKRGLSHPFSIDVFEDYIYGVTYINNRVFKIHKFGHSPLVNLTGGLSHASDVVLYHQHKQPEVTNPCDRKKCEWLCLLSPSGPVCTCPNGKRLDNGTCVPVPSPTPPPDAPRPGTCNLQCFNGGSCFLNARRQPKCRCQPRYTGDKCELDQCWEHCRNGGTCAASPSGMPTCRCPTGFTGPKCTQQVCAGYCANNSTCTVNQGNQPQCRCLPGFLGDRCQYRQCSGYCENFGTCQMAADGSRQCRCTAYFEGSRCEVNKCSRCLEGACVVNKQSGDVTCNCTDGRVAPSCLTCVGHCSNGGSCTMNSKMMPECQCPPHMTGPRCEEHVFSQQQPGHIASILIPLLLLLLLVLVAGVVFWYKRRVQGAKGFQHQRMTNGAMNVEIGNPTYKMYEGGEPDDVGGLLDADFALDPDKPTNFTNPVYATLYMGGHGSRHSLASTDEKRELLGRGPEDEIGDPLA

Rac-GTPase activity (G-LISA) in WI38 cells treated with CM from 293T cells expressing PRSS2, compared to CM from empty vector-transfected cells [1]: 2 fold | Rho-GTPase activity (G-LISA) in WI38 cells treated with PRSS2 CM (fold decrease) [1]: 3.2 | repression of Tsp-1 protein (western blot) in mock-transfected WI38 fibroblasts treated with CM from 293T cells expressing PRSS2 [2]: 58%
Substance: PRSS2 (serine protease PRSS2, wild type), ectopically expressed in 293T cells (from UniProt P07478 16-247) (enzyme)
